Measurements from patent US20240247080A1, “GLP1/GIP/NPY2 RECEPTOR TRIPLE AGONISTS” (Boehringer Ingelheim International GmbH, priority 2022, published 2024).
Starred links: 1 amine or outer side, 2 acyl side, 3 side chain; linkers in the order of their positions; H or OH if unused. Non-standard residues stand in square brackets, D forms with d. Groups on a side chain read outwards from the residue. No end group written: not given here. *: point of attachment. C20 diacid = O=C(O)CCCCCCCCCCCCCCCCCCC(=O)*; C18 diacid = O=C(O)CCCCCCCCCCCCCCCCC(=O)*; γGlu = O=C(O)[C@H](CCC(=O)[*:2])N[*:1]; εLys = N[C@@H](CCCCN[*:1])C(=O)[*:2]; AEEA = NCCOCCOCC(=O)O; Aib = CC(C)(N)C(=O)O

T1: human GIP receptor (human, UniProt P48546 22-466)
T1 sequence (looked up): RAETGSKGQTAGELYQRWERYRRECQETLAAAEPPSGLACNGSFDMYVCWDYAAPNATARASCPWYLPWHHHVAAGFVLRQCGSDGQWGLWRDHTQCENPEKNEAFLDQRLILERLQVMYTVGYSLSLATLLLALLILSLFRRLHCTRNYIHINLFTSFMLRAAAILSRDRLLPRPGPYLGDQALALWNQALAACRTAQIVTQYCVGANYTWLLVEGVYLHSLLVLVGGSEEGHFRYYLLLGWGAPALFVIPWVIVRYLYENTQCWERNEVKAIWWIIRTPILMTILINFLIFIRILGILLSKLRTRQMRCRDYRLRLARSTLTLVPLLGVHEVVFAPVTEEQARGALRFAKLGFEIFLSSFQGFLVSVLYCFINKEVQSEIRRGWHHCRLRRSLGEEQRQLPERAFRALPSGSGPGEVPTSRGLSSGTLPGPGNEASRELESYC

T2: human neuropeptide Y2 (NPY2) receptor (human, UniProt P49146 1-381)
T2 sequence (looked up): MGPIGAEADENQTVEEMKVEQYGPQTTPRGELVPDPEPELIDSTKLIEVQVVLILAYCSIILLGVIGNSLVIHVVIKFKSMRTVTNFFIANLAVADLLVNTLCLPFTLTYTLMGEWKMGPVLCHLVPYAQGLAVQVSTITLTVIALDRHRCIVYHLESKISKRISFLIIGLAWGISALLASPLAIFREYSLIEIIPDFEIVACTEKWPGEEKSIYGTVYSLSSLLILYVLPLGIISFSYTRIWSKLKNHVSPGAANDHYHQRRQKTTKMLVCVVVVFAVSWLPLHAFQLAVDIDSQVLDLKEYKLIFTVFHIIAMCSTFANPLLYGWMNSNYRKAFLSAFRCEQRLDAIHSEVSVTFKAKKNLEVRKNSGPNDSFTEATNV


molecular target: human GLP-1 receptor (human, UniProt P43220 24-463); experiment: cell-based or functional assay

Question: Y[Aib]EGTFTSDYSI[Aib]LEKQAE[Aib]AFVQWLIKGGPSEPASLRHYYNWLTRQRY-NH2 (not fully specified (residue 28); also: TFA salt) [Compound 54] was tested. Which “EC50, CreLuc assay, 0.5% hP” value did it give?
Answer: 0.22 nM

Question: And the “EC50, CreLuc assay, 100% hP” value?
Answer: 7.71 nM

Question: What does the source list for Y[Aib]EGTFTSDYSI[Aib]LEKQAQ[Aib]AFVQWLIK([AEEA-AEEA-γGlu-γGlu-γGlu-γGlu-C18 diacid])GGPEEPASLRHYYNWLTRQRY-NH2 (also: TFA salt) [Compound 57]?
Answer: EC50, CreLuc assay, 0.5% hP: 0.14 nM; EC50, CreLuc assay, 100% hP: 6.45 nM

Question: For Y[Aib]EGTFTSDYSI[Aib]LEEEAQ[Aib]AFVQWLIK([εLys-εLys-γGlu-γGlu-γGlu-γGlu-γGlu-C20 diacid])GGPSSGASLRHYYNWLTRQRY-NH2 (also: TFA salt) [Compound 7], which “EC50, CreLuc assay, 0.5% hP” value is on record?
Answer: 0.13 nM

Question: And the “EC50, CreLuc assay, 100% hP” value?
Answer: 1.58 nM

Question: What does the source list for Y[Aib]EGTFTSDYSI[Aib]LEKQAQ[Aib]EFVEWLIK([AEEA-AEEA-γGlu-γGlu-γGlu-γGlu-C18 diacid])GGPSSPASLRHYYNWLTRQRY-NH2 (also: TFA salt) [Compound 56]?
Answer: EC50, CreLuc assay, 0.5% hP: 0.25 nM; EC50, CreLuc assay, 100% hP: 8.97 nM

Question: How did the “EC50, CreLuc assay, 0.5% hP” value turn out when Y[Aib]EGTFTSDYSI[Aib]LEKQAQ[Aib]AFVQWLIKGGQRYYASLRHYYNWLTRQRY-NH2 (not fully specified (residue 28); also: TFA salt) [Compound 6] was run?
Answer: 0.9 nM

Question: What about the “EC50, CreLuc assay, 100% hP” value of the same binder?
Answer: 42.8 nM

Question: How did the “EC50, CreLuc assay, 0.5% hP” value turn out when Y[Aib]EGTFTSDYSI[Aib]LEKQAQ[Aib]EFVQWLIK([εLys-γGlu-γGlu-γGlu-γGlu-γGlu-γGlu-γGlu-C20 diacid])GGPSSGASLRHYYNWLTRQRY-NH2 (also: TFA salt) [Compound 43] was run?
Answer: 0.41 nM

Question: What about the “EC50, CreLuc assay, 100% hP” value of the same binder?
Answer: 5.91 nM

Question: Which results are given for Y[Aib]EGTFTSDYSI[Aib]LEKQAQ[Aib]AFVQWLIKGGPESGASLRHYYNWLTRQRY-NH2 (not fully specified (residue 28); also: TFA salt) [Compound 55]?
Answer: EC50, CreLuc assay, 0.5% hP: 0.09 nM; EC50, CreLuc assay, 100% hP: 4.17 nM

Question: What does the source list for Y[Aib]EGTFTSDYSI[Aib]LEEQAQ[Aib]AFVQWLIK([εLys-AEEA-γGlu-γGlu-γGlu-γGlu-γGlu-C20 diacid])GGPSSGASLRHYYNWLTRQRY-NH2 (also: TFA salt) [Compound 45]?
Answer: EC50, CreLuc assay, 0.5% hP: 0.11 nM; EC50, CreLuc assay, 100% hP: 1.6 nM

Question: Y[Aib]EGTFTSDYSI[Aib]LEKQAQ[Aib]AFVQWLIK([AEEA-AEEA-Glu-Glu-Glu-Glu-C18 diacid])GGPESGASLRHYYNWLTRQRY-NH2 (also: TFA salt) [Compound 52] was tested. Which “EC50, CreLuc assay, 0.5% hP” value did it give?
Answer: 0.09 nM

Question: And the “EC50, CreLuc assay, 100% hP” value?
Answer: 3.17 nM

molecular target: T1, human GIP receptor; experiment: cell-based or functional assay

Question: Y[Aib]EGTFTSDYSI[Aib]LEKQAE[Aib]AFVQWLIKGGPSEPASLRHYYNWLTRQRY-NH2 (not fully specified (residue 28); also: TFA salt) [Compound 54] was tested. Which “EC50, CreLuc assay, 0.5% hP” value did it give?
Answer: 0.24 nM

Question: What about the “EC50, CreLuc assay, 100% hP” value of the same binder?
Answer: 1.4 nM

Question: What does the source list for Y[Aib]EGTFTSDYSI[Aib]LEKQAQ[Aib]AFVQWLIK([AEEA-AEEA-γGlu-γGlu-γGlu-γGlu-C18 diacid])GGPEEPASLRHYYNWLTRQRY-NH2 (also: TFA salt) [Compound 57]?
Answer: EC50, CreLuc assay, 0.5% hP: 0.18 nM; EC50, CreLuc assay, 100% hP: 1.17 nM

Question: Which “EC50, CreLuc assay, 0.5% hP” value does the source give for Y[Aib]EGTFTSDYSI[Aib]LEEEAQ[Aib]AFVQWLIK([εLys-εLys-γGlu-γGlu-γGlu-γGlu-γGlu-C20 diacid])GGPSSGASLRHYYNWLTRQRY-NH2 (also: TFA salt) [Compound 7] here?
Answer: 0.23 nM

Question: What about the “EC50, CreLuc assay, 100% hP” value of the same binder?
Answer: 0.63 nM

Question: Y[Aib]EGTFTSDYSI[Aib]LEKQAQ[Aib]EFVEWLIK([AEEA-AEEA-γGlu-γGlu-γGlu-γGlu-C18 diacid])GGPSSPASLRHYYNWLTRQRY-NH2 (also: TFA salt) [Compound 56] was tested. Which “EC50, CreLuc assay, 0.5% hP” value did it give?
Answer: 0.27 nM

Question: What about the “EC50, CreLuc assay, 100% hP” value of the same binder?
Answer: 1.02 nM

Question: What does the source list for Y[Aib]EGTFTSDYSI[Aib]LEKQAQ[Aib]AFVQWLIKGGQRYYASLRHYYNWLTRQRY-NH2 (not fully specified (residue 28); also: TFA salt) [Compound 6]?
Answer: EC50, CreLuc assay, 0.5% hP: 2.99 nM; EC50, CreLuc assay, 100% hP: 31.1 nM

Question: How did the “EC50, CreLuc assay, 0.5% hP” value turn out when Y[Aib]EGTFTSDYSI[Aib]LEKQAQ[Aib]EFVQWLIK([εLys-γGlu-γGlu-γGlu-γGlu-γGlu-γGlu-γGlu-C20 diacid])GGPSSGASLRHYYNWLTRQRY-NH2 (also: TFA salt) [Compound 43] was run?
Answer: 0.64 nM

Question: And the “EC50, CreLuc assay, 100% hP” value?
Answer: 1.97 nM

Question: With Y[Aib]EGTFTSDYSI[Aib]LEKQAQ[Aib]AFVQWLIKGGPESGASLRHYYNWLTRQRY-NH2 (not fully specified (residue 28); also: TFA salt) [Compound 55] as the binder, how does the “EC50, CreLuc assay, 0.5% hP” value read?
Answer: 0.12 nM

Question: What about the “EC50, CreLuc assay, 100% hP” value of the same binder?
Answer: 0.82 nM

Question: What does the source list for Y[Aib]EGTFTSDYSI[Aib]LEEQAQ[Aib]AFVQWLIK([εLys-AEEA-γGlu-γGlu-γGlu-γGlu-γGlu-C20 diacid])GGPSSGASLRHYYNWLTRQRY-NH2 (also: TFA salt) [Compound 45]?
Answer: EC50, CreLuc assay, 0.5% hP: 0.14 nM; EC50, CreLuc assay, 100% hP: 1.15 nM

Question: For Y[Aib]EGTFTSDYSI[Aib]LEKQAQ[Aib]AFVQWLIK([AEEA-AEEA-Glu-Glu-Glu-Glu-C18 diacid])GGPESGASLRHYYNWLTRQRY-NH2 (also: TFA salt) [Compound 52], which “EC50, CreLuc assay, 0.5% hP” value is on record?
Answer: 0.12 nM

Question: And the “EC50, CreLuc assay, 100% hP” value?
Answer: 0.65 nM

molecular target: T2, human neuropeptide Y2 (NPY2) receptor; experiment: cell-based or functional assay

Question: How did the “EC50, CreLuc assay, 0.5% hP” value turn out when Y[Aib]EGTFTSDYSI[Aib]LEKQAE[Aib]AFVQWLIKGGPSEPASLRHYYNWLTRQRY-NH2 (not fully specified (residue 28); also: TFA salt) [Compound 54] was run?
Answer: 14 nM

Question: What about the “EC50, CreLuc assay, 100% hP” value of the same binder?
Answer: 60.1 nM

Question: What does the source list for Y[Aib]EGTFTSDYSI[Aib]LEKQAQ[Aib]AFVQWLIK([AEEA-AEEA-γGlu-γGlu-γGlu-γGlu-C18 diacid])GGPEEPASLRHYYNWLTRQRY-NH2 (also: TFA salt) [Compound 57]?
Answer: EC50, CreLuc assay, 0.5% hP: 9.74 nM; EC50, CreLuc assay, 100% hP: 33.6 nM

Question: Y[Aib]EGTFTSDYSI[Aib]LEEEAQ[Aib]AFVQWLIK([εLys-εLys-γGlu-γGlu-γGlu-γGlu-γGlu-C20 diacid])GGPSSGASLRHYYNWLTRQRY-NH2 (also: TFA salt) [Compound 7] was tested. Which “EC50, CreLuc assay, 0.5% hP” value did it give?
Answer: 16.9 nM

Question: What about the “EC50, CreLuc assay, 100% hP” value of the same binder?
Answer: 36.7 nM

Question: Which results are given for Y[Aib]EGTFTSDYSI[Aib]LEKQAQ[Aib]EFVEWLIK([AEEA-AEEA-γGlu-γGlu-γGlu-γGlu-C18 diacid])GGPSSPASLRHYYNWLTRQRY-NH2 (also: TFA salt) [Compound 56]?
Answer: EC50, CreLuc assay, 0.5% hP: 27.2 nM; EC50, CreLuc assay, 100% hP: 48.8 nM

Question: With Y[Aib]EGTFTSDYSI[Aib]LEKQAQ[Aib]AFVQWLIKGGQRYYASLRHYYNWLTRQRY-NH2 (not fully specified (residue 28); also: TFA salt) [Compound 6] as the binder, how does the “EC50, CreLuc assay, 0.5% hP” value read?
Answer: 16.9 nM

Question: And the “EC50, CreLuc assay, 100% hP” value?
Answer: 86.7 nM

Question: Y[Aib]EGTFTSDYSI[Aib]LEKQAQ[Aib]EFVQWLIK([εLys-γGlu-γGlu-γGlu-γGlu-γGlu-γGlu-γGlu-C20 diacid])GGPSSGASLRHYYNWLTRQRY-NH2 (also: TFA salt) [Compound 43] was tested. Which “EC50, CreLuc assay, 0.5% hP” value did it give?
Answer: 13.1 nM

Question: And the “EC50, CreLuc assay, 100% hP” value?
Answer: 21.1 nM

Question: Which results are given for Y[Aib]EGTFTSDYSI[Aib]LEKQAQ[Aib]AFVQWLIKGGPESGASLRHYYNWLTRQRY-NH2 (not fully specified (residue 28); also: TFA salt) [Compound 55]?
Answer: EC50, CreLuc assay, 0.5% hP: 16 nM; EC50, CreLuc assay, 100% hP: 53.4 nM

Question: Which “EC50, CreLuc assay, 0.5% hP” value does the source give for Y[Aib]EGTFTSDYSI[Aib]LEEQAQ[Aib]AFVQWLIK([εLys-AEEA-γGlu-γGlu-γGlu-γGlu-γGlu-C20 diacid])GGPSSGASLRHYYNWLTRQRY-NH2 (also: TFA salt) [Compound 45] here?
Answer: 17.2 nM

Question: What about the “EC50, CreLuc assay, 100% hP” value of the same binder?
Answer: 46.5 nM

Question: For Y[Aib]EGTFTSDYSI[Aib]LEKQAQ[Aib]AFVQWLIK([AEEA-AEEA-Glu-Glu-Glu-Glu-C18 diacid])GGPESGASLRHYYNWLTRQRY-NH2 (also: TFA salt) [Compound 52], which “EC50, CreLuc assay, 0.5% hP” value is on record?
Answer: 18.7 nM

Question: What about the “EC50, CreLuc assay, 100% hP” value of the same binder?
Answer: 93.5 nM
